FVIII activity in the chromogenic substrate (CS) assay; thrombin-cleaved scFv 1000 to 0.24 nM with 145 pM FVIII; molar excess needed for the same inhibition as the non-cleaved scFv data for one molecule are collected here from paper PMC9330781.

In this test the target is Recombinant blood coagulation factor VIII (human). As to conditions: scale: times higher molar excess over FVIII.

B1: Thrombin-cleaved iKM33-v2 (mixture of dissociated VH and VL) (protein)
VH: EVQLVESGGGVVQPGRSLRLSCVDSGLTFSSYGMHWVRQAPGAGLEWVAVISYDGNDKYYADSVKGRFAISRDNAKNTLYLQMNSLTIEDTAVYYCAKDLIESNIAEAFWGQGTLVTVSS
VL: DIQMTQSPSSLSASVGDTVTIACRASRDIRNDLAWYQQKPGKAPKLLIYATSRLQSGVPSRFSGSGSFTDFTLTINSLQPDDSATYYCLQDSDYPLTFGGGTKVDIK
Take B1: the FVIII activity in the chromogenic substrate (CS) assay; thrombin-cleaved scFv 1000 to 0.24 nM with 145 pM FVIII; molar excess needed for the same inhibition as the non-cleaved scFv turned out to be 100.
